Measurements as given in patent US20260242478A1 (published 2026).
Where no end group is shown, it is not given here.

B1: Phage-3326 (peptide)
peptide: QVVMCTPEWMCSGF
B2: Phage-3311 (peptide)
peptide: LEFRCVPEWMCVGF
B3: Phage-3284 (peptide)
peptide: ELQRCIPQWMCVGL
notes: Peptide-180 library clone, tested as clonal phage supernatant with the peptide fused to pIII
B4: Phage-3271 (peptide)
peptide: GGVLCQPAWMCIGF
notes: Peptide-180 library clone, tested as clonal M13 phage displaying the peptide fused to pIII
B5: Phage-3286 (peptide)
peptide: PTLRCEPLWMCAGF
notes: as for B3
B6: Phage-3324 (peptide)
peptide: VGPRCVPEWMCIGL
B7: Phage-3317 (peptide)
peptide: SSVMCIPQWMCSGF
B8: Phage-3287 (peptide)
peptide: ESLLCKPKWMCDWL
notes: as for B3
B9: Phage-3277 (peptide)
peptide: PARMCVPAWMCSVL
notes: as for B4
B10: Phage-3325 (peptide)
peptide: MYIHCVPEWMCRGF
B11: Phage-3283 (peptide)
peptide: FDHLCIPVWMCKGF
notes: as for B3
B12: Phage-3315 (peptide)
peptide: VEIACKPQWMCLGF
B13: Phage-3273 (peptide)
peptide: SMGLCKPPWMCAGF
modifications: not fully specified; cysteine pairing not given here
notes: as for B4
B14: Phage-3275 (peptide)
peptide: FDRICKPAWMCIEF
notes: as for B4
B15: Phage-3272 (peptide)
peptide: INAWCIPAWMCEGF
notes: as for B4
B16: Phage-3269 (peptide)
peptide: ISPRCEPLWMCTGL
notes: as for B4
B17: Phage-3291 (peptide)
peptide: PIPRCQPLWMCHGF
notes: as for B3
B18: Phage-3316 (peptide)
peptide: QEFRCVPEWMCIGL
B19: Phage-3276 (peptide)
peptide: EFQMCVPEWMCTGL
notes: as for B4
B20: Phage-3318 (peptide)
peptide: LPIMCKPQWMCNGF
B21: Phage-3322 (peptide)
peptide: IMPKCVPSWMCTGL
B22: Phage-3323 (peptide)
peptide: AGSMCTPMWMCTGF
B23: Phage-3289 (peptide)
peptide: EDYVCRPTWMCVGF
notes: as for B3
B24: Phage-3309 (peptide)
peptide: VERACVPAWMCTGF
B25: Phage-3279 (peptide)
peptide: GEPWCIPSWMCQGF
notes: as for B4
B26: Phage-3274 (peptide)
peptide: MVVRCEPEWMCIGF
notes: as for B4
B27: Phage-3270 (peptide)
peptide: LDPMCVPSWMCWGF
notes: as for B4
B28: Phage-3320 (peptide)
peptide: VGHVCIPSWMCDGM
B29: Phage-3292 (peptide)
peptide: YEMRCVPDWMCVGL
notes: as for B3
B30: Phage-3319 (peptide)
peptide: LQVMCVPRWMCEGF
B31: Phage-3313 (peptide)
peptide: AEHVCRPAWMCTVF
B32: Phage-3314 (peptide)
peptide: LLEMCKPHWMCVGF
B33: Phage-3308 (peptide)
peptide: NWKVCEPTWMCEGF
B34: Phage-3281 (peptide)
peptide: VERMCKPEWMCFGF
notes: Peptide-180 library clone, tested as clonal phage supernatant with the peptide fused to pIII of the bacteriophage
B35: Phage-3285 (peptide)
peptide: FDTYCKPAWMCEGF
notes: as for B3
B36: Phage-3312 (peptide)
peptide: DLRWCIPEWMCIGI
B37: Phage-3310 (peptide)
peptide: IEKLCKPQWMCEGF
B38: Phage-3282 (peptide)
peptide: MEHWCVPAWMCSGF
notes: as for B3
B39: Phage-3294 (peptide)
peptide: TDVMCVPQWMCDGF
notes: as for B3
B40: Phage-3293 (peptide)
peptide: ETLMCIPNWMCDGF
notes: as for B3
B41: Phage-3288 (peptide)
peptide: VDAYCKPAWMCLGF
notes: as for B3
B42: Phage-3278 (peptide)
peptide: LPPMCIPQWMCMHF
notes: as for B4
B43: Phage-3290 (peptide)
peptide: MDVLCRPEWMCTGF
notes: as for B3
B44: Phage-3321 (peptide)
peptide: WVIKCVPSWMCAGL
B45: Phage-3280 (peptide)
peptide: WNHVCIPTWMCTGM
notes: as for B4

Key:
PSMA Fab [1] = target: T1, PSMA Fab (biotinylated (site not stated)); assay: clonal phage ELISA on captured PSMA Fab, wells pre-incubated with PSMA antigen as competitor; anti-M13 HRP detection
T1 construct: Biotinylated PSMA Fab captured on neutravidin coated plates in the phage ELISA; also called Anti-PSMA Fab; 006 PSMA Fab

PSMA Fab [2] = target: T1, PSMA Fab; assay: clonal phage ELISA on biotinylated PSMA Fab captured on neutravidin plates, blocking buffer alone; anti-M13 HRP detection
Experimental: (§1) Clonal phage were harvested as crude supernatants and screened via standard ELISAs. […] Prior to the addition of clonal phage. wells were incubated with blocking buffer and PSMA antigen or blocking buffer alone. Without washing or aspirating, clonal phage supernatants were then added to the wells and incubated for a short time. Wells were then washed followed by detection of bound phage using a horse radish conjugated anti-M13 antibody.

PSMA Fab [3] = target: T2, PSMA Fab; assay: clonal phage ELISA on biotinylated PSMA Fab captured on neutravidin, anti-M13 HRP detection, blocking buffer alone
T2 construct: In the panning ELISA the PSMA Fab was biotinylated and captured on neutravidin coated plates; also called Anti-PSMA Fab; 006 PSMA Fab
Experimental: as §1

PSMA Fab [4] = target: T2, PSMA Fab; assay: clonal phage ELISA on biotinylated PSMA Fab captured on neutravidin, anti-M13 HRP detection, wells pre-incubated with saturating PSMA antigen as competitor
Experimental: as §1

PSMA Fab [5] = target: T3, PSMA Fab (biotinylated (site not stated)); assay: phage ELISA on captured PSMA Fab pre-incubated with PSMA antigen as competitor, anti-M13-HRP detection
T3 construct: also called Anti-PSMA Fab; 006 PSMA Fab

PSMA Fab [6] = target: T3, PSMA Fab; assay: phage ELISA: clonal phage on biotinylated PSMA Fab captured on neutravidin, anti-M13-HRP detection, blocking buffer alone
Experimental: as §1

PSMA Fab (006 PSMA Fab) [7] = target: T4, PSMA Fab (006 PSMA Fab) (biotinylated for capture on neutravidin plates (site not stated)); assay: phage ELISA as above, wells pre-incubated with PSMA antigen as competitor
T4 construct: also called Anti-PSMA Fab; anti-PSMA Fab

PSMA Fab (006 PSMA Fab) [8] = target: T4, PSMA Fab (006 PSMA Fab); assay: phage ELISA: clonal phage supernatant on biotinylated PSMA Fab captured on neutravidin plate, anti-M13-HRP detection
Experimental: as §1

| Binder | Phage binding ELISA signal, Anti-PSMA Fab (PSMA Fab [3]) | Phage binding ELISA signal, Anti-PSMA Fab with PSMA antigen (PSMA Fab [4]) | Phage binding ELISA signal, Anti-PSMA Fab with PSMA antigen (PSMA Fab [5]) | Phage binding ELISA signal, Anti-PSMA Fab (PSMA Fab [6]) | further results |
| --- | --- | --- | --- | --- | --- |
| B1 |  |  |  |  | phage binding ELISA signal (PSMA Fab [1]): 0.0905; phage binding ELISA signal (PSMA Fab [2]): 1.85 |
| B2 | 1.87 | 0.111 |  |  |  |
| B3 |  |  | 0.0731 | 1.89 |  |
| B4 |  |  |  |  | Phage binding ELISA signal, Anti-PSMA Fab in presence of PSMA (PSMA Fab (006 PSMA Fab) [7]): 0.0804; Phage binding ELISA signal, Anti-PSMA Fab (PSMA Fab (006 PSMA Fab) [8]): 1.9 |
| B5 |  |  | 0.0911 | 1.89 |  |
| B6 |  |  |  |  | phage binding ELISA signal (PSMA Fab [1]): 0.0954; phage binding ELISA signal (PSMA Fab [2]): 1.85 |
| B7 | 1.86 | 0.0899 |  |  |  |
| B8 |  |  | 0.0996 | 1.89 |  |
| B9 |  |  |  |  | Phage binding ELISA signal, Anti-PSMA Fab in presence of PSMA (PSMA Fab (006 PSMA Fab) [7]): 0.0732; Phage binding ELISA signal, Anti-PSMA Fab (PSMA Fab (006 PSMA Fab) [8]): 1.9 |
| B10 |  |  |  |  | phage binding ELISA signal (PSMA Fab [1]): 0.0941; phage binding ELISA signal (PSMA Fab [2]): 1.85 |
| B11 |  |  | 0.0828 | 1.89 |  |
| B12 | 1.86 | 0.0766 |  |  |  |
| B13 |  |  |  |  | Phage binding ELISA signal, Anti-PSMA Fab in presence of PSMA (PSMA Fab (006 PSMA Fab) [7]): 0.0756; Phage binding ELISA signal, Anti-PSMA Fab (PSMA Fab (006 PSMA Fab) [8]): 1.9 |
| B14 |  |  |  |  | Phage binding ELISA signal, Anti-PSMA Fab in presence of PSMA (PSMA Fab (006 PSMA Fab) [7]): 0.0573; Phage binding ELISA signal, Anti-PSMA Fab (PSMA Fab (006 PSMA Fab) [8]): 1.9 |
| B15 |  |  |  |  | Phage binding ELISA signal, Anti-PSMA Fab in presence of PSMA (PSMA Fab (006 PSMA Fab) [7]): 0.137; Phage binding ELISA signal, Anti-PSMA Fab (PSMA Fab (006 PSMA Fab) [8]): 1.9 |
| B16 |  |  |  |  | Phage binding ELISA signal, Anti-PSMA Fab in presence of PSMA (PSMA Fab (006 PSMA Fab) [7]): 0.0836; Phage binding ELISA signal, Anti-PSMA Fab (PSMA Fab (006 PSMA Fab) [8]): 1.91 |
| B17 |  |  | 0.085 | 1.89 |  |
| B18 | 1.86 | 0.0577 |  |  |  |
| B19 |  |  |  |  | Phage binding ELISA signal, Anti-PSMA Fab in presence of PSMA (PSMA Fab (006 PSMA Fab) [7]): 0.0838; Phage binding ELISA signal, Anti-PSMA Fab (PSMA Fab (006 PSMA Fab) [8]): 1.9 |
| B20 | 1.86 | 0.08 |  |  |  |
| B21 |  |  |  |  | phage binding ELISA signal (PSMA Fab [1]): 0.153; phage binding ELISA signal (PSMA Fab [2]): 1.85 |
| B22 |  |  |  |  | phage binding ELISA signal (PSMA Fab [1]): 0.0744; phage binding ELISA signal (PSMA Fab [2]): 1.85 |
| B23 |  |  | 0.0755 | 1.89 |  |

| Binder | Phage binding ELISA signal, Anti-PSMA Fab (PSMA Fab [3]) | Phage binding ELISA signal, Anti-PSMA Fab with PSMA antigen (PSMA Fab [4]) | Phage binding ELISA signal, Anti-PSMA Fab with PSMA antigen (PSMA Fab [5]) | Phage binding ELISA signal, Anti-PSMA Fab (PSMA Fab [6]) | further results |
| --- | --- | --- | --- | --- | --- |
| B24 | 1.87 | 0.0832 |  |  |  |
| B25 |  |  |  |  | Phage binding ELISA signal, Anti-PSMA Fab in presence of PSMA (PSMA Fab (006 PSMA Fab) [7]): 0.091; Phage binding ELISA signal, Anti-PSMA Fab (PSMA Fab (006 PSMA Fab) [8]): 1.9 |
| B26 |  |  |  |  | Phage binding ELISA signal, Anti-PSMA Fab in presence of PSMA (PSMA Fab (006 PSMA Fab) [7]): 0.0649; Phage binding ELISA signal, Anti-PSMA Fab (PSMA Fab (006 PSMA Fab) [8]): 1.9 |
| B27 |  |  |  |  | Phage binding ELISA signal, Anti-PSMA Fab in presence of PSMA (PSMA Fab (006 PSMA Fab) [7]): 0.0992; Phage binding ELISA signal, Anti-PSMA Fab (PSMA Fab (006 PSMA Fab) [8]): 1.9 |
| B28 | 1.86 | 0.0683 |  |  |  |
| B29 |  |  | 0.0906 | 1.89 |  |
| B30 | 1.86 | 0.104 |  |  |  |
| B31 | 1.86 | 0.0585 |  |  |  |
| B32 | 1.86 | 0.085 |  |  |  |
| B33 | 1.87 | 0.0575 |  |  |  |
| B34 |  |  | 0.102 | 1.9 |  |
| B35 |  |  | 0.0818 | 1.89 |  |
| B36 | 1.86 | 0.0809 |  |  |  |
| B37 | 1.87 | 0.129 |  |  |  |
| B38 |  |  | 0.264 | 1.89 |  |
| B39 |  |  | 0.106 | 1.89 |  |
| B40 |  |  | 0.0837 | 1.89 |  |
| B41 |  |  | 0.0998 | 1.89 |  |
| B42 |  |  |  |  | Phage binding ELISA signal, Anti-PSMA Fab in presence of PSMA (PSMA Fab (006 PSMA Fab) [7]): 0.0592; Phage binding ELISA signal, Anti-PSMA Fab (PSMA Fab (006 PSMA Fab) [8]): 1.9 |
| B43 |  |  | 0.0971 | 1.89 |  |
| B44 | 1.85 | 0.0907 |  |  |  |
| B45 |  |  |  |  | Phage binding ELISA signal, Anti-PSMA Fab in presence of PSMA (PSMA Fab (006 PSMA Fab) [7]): 0.0817; Phage binding ELISA signal, Anti-PSMA Fab (PSMA Fab (006 PSMA Fab) [8]): 1.9 |
